Experimental data taken from patent publication US20230257479A1 (Genmab, published 2023).

T1: full length cynomolgus monkey 5T4 on transfected HEK-293 cells (cynomolgus monkey, UniProt Q4R8Y9 35-420)
T1 construct: Uniprot Q4R8Y9; residues 1-34 are the signal peptide; also called cynomolgus 5T4
T1 sequence: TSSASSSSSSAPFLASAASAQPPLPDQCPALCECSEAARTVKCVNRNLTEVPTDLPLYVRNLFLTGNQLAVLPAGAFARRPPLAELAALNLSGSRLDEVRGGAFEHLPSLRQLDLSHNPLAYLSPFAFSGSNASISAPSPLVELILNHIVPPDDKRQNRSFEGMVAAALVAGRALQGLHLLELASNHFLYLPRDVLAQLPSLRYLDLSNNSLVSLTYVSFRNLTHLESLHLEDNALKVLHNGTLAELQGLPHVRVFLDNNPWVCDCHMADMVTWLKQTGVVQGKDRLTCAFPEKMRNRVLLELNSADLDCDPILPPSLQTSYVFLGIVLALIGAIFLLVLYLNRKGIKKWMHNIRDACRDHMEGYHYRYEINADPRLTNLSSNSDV

T2: full length human 5T4 (SEQ ID NO: 1) on cells (human, UniProt Q13641 32-420)
T2 construct: Uniprot Q13641; residues 1-31 are the signal peptide; Used both for transfected HEK-293 cells and for 5T4-expressing human tumor cell lines
T2 sequence: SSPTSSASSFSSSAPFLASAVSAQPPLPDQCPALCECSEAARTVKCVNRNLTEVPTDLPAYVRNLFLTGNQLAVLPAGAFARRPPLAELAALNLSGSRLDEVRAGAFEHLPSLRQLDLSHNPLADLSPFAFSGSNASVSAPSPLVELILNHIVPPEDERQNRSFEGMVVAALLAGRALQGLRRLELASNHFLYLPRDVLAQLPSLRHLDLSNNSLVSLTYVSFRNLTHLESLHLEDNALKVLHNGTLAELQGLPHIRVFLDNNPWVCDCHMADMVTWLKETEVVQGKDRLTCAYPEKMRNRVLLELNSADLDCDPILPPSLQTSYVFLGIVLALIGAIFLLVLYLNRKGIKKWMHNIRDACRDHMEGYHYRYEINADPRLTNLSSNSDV

B1: IgG1-5T4-207-FEAR (antibody, V domains shown)
VH: QVQLQQWGAGLLKPSETLSLTCAVYGGSFSGYYWTWIRQPPGKGLEWIGEIDHSESTNYNPSLKSRVTISVDTSKNQFSLKLSSVTAADTAVYYCAGWFGELYHYYYGMDVWGQGTTVTVSS
VL: EIVLTQSPATLSLSPGERATLSCRASQSVSSYLAWYQQKPGQAPRLLIYDASNRATGIPARFSGSGSGTDFTLTISSLEPEDFAVYYCQQRSNWPLTFGGGTKVEIKR
notes: Monospecific, bivalent IgG1 FEAR
B2: IgG1-5T4-226-FEAR (antibody, V domains shown)
VH: QVQLQQWGAGLLKPSETLSLTCAVYGGSFSGYYWSWIRQPPGKGLEWIGEIDHSGSTNYNPSLKSRVTISVDTSKNQFSLKLSSVTAADTAVYYCAAWFGELWDYYYGMDVWGQGTTVTVSS
VL: EIVLTQSPATLSLSPGERATLSCRASQSVSSFLAWYQQKPGQAPRLLIYDASNRATGIPARFSGSGSGTDFTLTISSLEPEDFAVYYCQQRSNWPLTFGQGTRLEIK
notes: Monospecific, bivalent human IgG1 kappa with L234F, L235E, D265A, K409R (FEAR); also called IgG1-5T4-226-FEAR-FITC

How the values were obtained:
[1] = molecular target: T1, full length cynomolgus monkey 5T4 on …; assay: flow cytometry, HEK-293 cells transfected with cynomolgus monkey 5T4, PE secondary [II)A]
[2] = molecular target: T1, full length cynomolgus monkey 5T4 on …; assay: flow cytometry, HEK-293 cells transfected with cynomolgus monkey 5T4, FITC secondary [I)A]
Method: (§1) Experiments were performed in technical duplicate. After washing twice in staining buffer, cells were incubated in 50 µL secondary antibody at 4° C. for 30 min. […] Cells were washed twice in staining buffer, re-suspended in 30 µL staining buffer and analyzed on an iQue Screener (Intellicyt Corporation, USA). Binding curves were analyzed using non-linear regression (sigmoidal dose-response with variable slope) using GraphPad Prism V7.02 software (GraphPad Software, San Diego, CA, USA).

[3] = molecular target: T2, full length human 5T4 (SEQ ID NO: 1) on …; assay: flow cytometry, HeLa cells, FITC secondary [I)A]
Method: (§2) After washing twice in staining buffer, cells were incubated in 50 µL secondary antibody at 4° C. for 30 min. […] Next, cells were washed twice in staining buffer, re-suspended in 120 µL staining buffer and analyzed on a BD LSRFortessa FACS (BD Biosciences, USA). Binding curves were analyzed using non-linear regression (sigmoidal dose-response with variable slope) using GraphPad Prism V7.02 software (GraphPad Software, San Diego, CA, USA).

[4] = molecular target: T2, full length human 5T4 (SEQ ID NO: 1) on …; assay: flow cytometry, HEK-293 cells transfected with human 5T4, PE secondary [II)A]
[5] = molecular target: T2, full length human 5T4 (SEQ ID NO: 1) on …; assay: flow cytometry, HEK-293 cells transfected with human 5T4, FITC secondary [I)A]
Method: as §1

[6] = molecular target: T2, full length human 5T4 (SEQ ID NO: 1) on …; assay: flow cytometry, MDA-MB-231 cells, FITC secondary [I)A]
Method: as §2

[7] = molecular target: T2, full length human 5T4 (SEQ ID NO: 1) on …; assay: flow cytometry, HeLa cells, FITC secondary [I)C]
Method: as §2

[8] = molecular target: T1, full length cynomolgus monkey 5T4 on …; assay: flow cytometry, HEK-293 cells transfected with cynomolgus monkey 5T4, FITC secondary [I)B]
Method: as §1

[9] = molecular target: T2, full length human 5T4 (SEQ ID NO: 1) on …; assay: flow cytometry, MDA-MB-231 cells, FITC secondary [I)C]
Method: Binding of CD3x5T4 bispecific and 5T4 monospecific antibodies to 5T4-positive human tumor cells. Mono- and bivalent binding of 5T4 antibodies to HeLa cells (left panels) or MDA-MB-231 cells (right panels) was determined by flow cytometry. Cells were incubated with increasing concentrations of antibodies. After secondary labelling with FITC-conjugated goat-anti-human IgG F(ab′)2, the MFI was determined by flow cytometry.
as §2

[10] = molecular target: T1, full length cynomolgus monkey 5T4 on …; assay: flow cytometry, HEK-293 cells transfected with cynomolgus monkey 5T4, PE secondary [II)B]
[11] = molecular target: T2, full length human 5T4 (SEQ ID NO: 1) on …; assay: flow cytometry, HEK-293 cells transfected with human 5T4, FITC secondary [I)B]
Method: as §1

Binder	EC50 (read off the curve) [1]	EC50 (read off the curve) [2]	EC50 (read off the curve) [3]	EC50 (read off the curve) [4]	EC50 (read off the curve) [5]	EC50 (read off the curve) [6]	EC50 (read off the curve) [7]	EC50 (read off the curve) [8]	EC50 (read off the curve) [9]	EC50 (read off the curve) [10]	EC50 (read off the curve) [11]
B1	~0.08 µg/mL	~0.06 µg/mL	~0.008 µg/mL	~0.08 µg/mL	~0.05 µg/mL	~0.03 µg/mL					
B2							~0.01 µg/mL	~0.08 µg/mL	~0.04 µg/mL	~0.02 µg/mL	~0.1 µg/mL
